# Data from the nanobody polyreactivity screen of Harvey et al. (2022).
# Assay: yeast display, Sf9 membrane polyspecificity reagent, FACS + sequencing; frameworks hold sequencing errors
# Summary of the method: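 Genes from sorted yeast were amplified by colony PCR, read by MiSeq 2 × 250 sequencing and filtered on CDR length. These cells carried a synthetic nanobody library in Saccharomyces cerevisiae BJ5465 and were sorted by FACS into low and high (top ~1%) gates on anti-HA and streptavidin fluorescence. Polyreactivity is labelled according to the gate of origin.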
row,Sequence,polyreactivity (PSR sort gate)
1,QVQLVESGGGLVQAGGSLRLSCAASGRIFGYNDMGWYRQAPGKERELVAAINRTGGSTYYADSVKGRFTISRDNGKNTVYLQMNSLKPEDTAVYYCNAVARTKWVQTHTDFITDYDYWGQGTQVTVSS,low polyreactivity
2,QVQLVESGGGLVQAGGSLRLSCAASGRIFGYNSMGWYRQAPGKERELVAAIRRSGGRTFYADSVKGRFTLSRDNAKNTVYLQMNRLKPEDTAVYYCAVRGPGTSTYWYHEYEYWGQGTQVTVSS,high polyreactivity
3,QVQLVESGGGLVQAGGSLRLSCAASGRIFGYTMGWYRPAPGKERELVAAISRSAGSTYYADSVKGRFTISRDNAKNTVYLQMNSLKPEDTAVYYCAATGRYYREYDYWGQGTQVTVSS,high polyreactivity
4,QVQLVESGGGLVQAGGSLRLSCAASGRIFGYYAMGWSRQAPGKERELVASIRRGTRTNYADSVKGRFTISRDNAKNTVYLQMNSLKPEDTAVYYCAATRFQFTTTPWYDYWGQGTHVTVSS,high polyreactivity
5,QVQLVESGGGLVQAGGSLRLSCAASGRIFGYYAMGWYRPAPGKEMELVAAIRYSSGRTYYADSVKGRFTISRDNAKNTVYLQMNSLKPEDTAVYYCAAKDQATYQLNYWGQGTQVTVSS,high polyreactivity
6,QVQLVESGGGLVQAGGSLRLSCAASGRIFGYYAMGWYRQAPGKERELVAAIDGSGGTTYYADSVKGRITISRDNAKNSVYLQMNSLKPEATAVYYCAARGYNSKYGYWGQGTQVTVSS,high polyreactivity
7,QVQLVESGGGLVQAGGSLRLSCAASGRIFGYYAMGWYRQAPGKERELVAAISNGGSTHYADSVKGRFTISRDNANNTVYLQMTSLKPEDTAVYYCAAKASRVDWGYGYWGQGTQVTVSS,high polyreactivity
8,QVQLVESGGGLVQAGGSLRLSCAASGRIFGYYAMGWYRQAPGKERELVAAISYIGGRTYYADSVKGRFTISRDNAKNTGYLQMNSLKPEDTAVYYCDADRDGADVDYWGQGTQVTVSS,high polyreactivity
9,QVQLVESGGGLVQAGGSLRLSCAASGRIFGYYAMGWYRQAPGKERELVAAITWSGGSTYYADSVKGRFTISRDNAKNTVYLQMNSLKPEDNAVYYCAAEKRYRKAFDYWGQGTQVTVSS,high polyreactivity
10,QVQLVESGGGLVQAGGSLRLSCAASGRIFGYYAMGWYRQAPGKERELVAGIDWSGGNTYYADSVKGRFTISRDNAKNTVYLQMNSLKPEDTAVYYCNTVGGRDTAWYDYWGQGTQVTVSS,low polyreactivity
11,QVQLVESGGGLVQAGGSLRLSCAASGRIFGYYAMGWYRQAPGKERELVARIRRRGGSTYYADSVKGRFTISRDNAKNTVYLQMNSLKPEDTAVYYCAAVYYPLVGKRYYYWGQGTQVTVSS,high polyreactivity
12,QVQLVESGGGLVQAGGSLRLSCAASGRIFGYYAMGWYRQAPGKERELVASITNGASTNYADSVKGRFTISRDNAKNTVYLQMNSLKPEDTAVYYWNARRGSRRFGYWGQGTQVTVSS,high polyreactivity
13,QVQLVESGGGLVQAGGSLRLSCAASGRIFGYYAMGWYRQAPGKQRELVAAISWSGGRTYYADSVKGRFTISRDNAKNTVYLQMNSLKPEDTAVYYCNKVYRVPITEEYDYWGQGTQVTVSS,high polyreactivity
14,QVQLVESGGGLVQAGGSLRLSCAASGRIFGYYAMGWYRQAPGTERELVAAITYNGASTYYADSVKGRFTISRDNAKNTVYLQMNSLKPEDTAVYYCAVLTRYGGYGYWGQGTQVTVSS,high polyreactivity
15,QVQLVESGGGLVQAGGSLRLSCAASGRIFGYYGMGWYRPAPGKERELVAAITYRGGSTYYADSVKGRFTISRDNAKNTVYLQMNSLKPEDTAVYYCAADGYSHYPYLYDYWGQGTQVTVSS,low polyreactivity
16,QVQLVESGGGLVQAGGSLRLSCAASGRIFGYYPKGCYRPAPGKERELVAAISSGGNTNYADSVKGRFTISRDNAKKTVYLQMNSLKPEDTAVYYCSAYHFSFGWIRVDYWGQGTQVTVSS,high polyreactivity
17,QVQLVESGGGLVQAGGSLRLSCAASGRIFGYYTMGWYRQAPGKERELVATIDWSGDSTYYADSVKARFTISRDNAKNTVYLQMNSLKPEDTAVYYCAARDHAFRYYRNPYKGKYDYWGQGTQVPVSS,low polyreactivity
18,QVQLVESGGGLVQAGGSLRLSCAASGRIFHFNAIGWYRQAPGKERELFARIDTRGDSTYYADSVKGRFTISRDNAKNTVYLQMNSLKPEDTAVYYCAARGSRDGPYSGYGYWGQGTQVTVSS,low polyreactivity
19,QVQLVESGGGLVQAGGSLRLSCAASGRIFHGNAMGWYRQAPGKERELVAAISRSGSRTYYADSVKGRFTISRDNAKNTVYLQMNSLKPEDTAVYYCAAVTFSYQDYYWGQVTQVTVSS,high polyreactivity
20,QVQLVESGGGLVQAGGSLRLSCAASGRIFHGYAMGWYRQAPGKESELVAAISSGGRTNYADSVKGRFTISRDNAKYTVYLQMNSLKPEDTAVYYCAAPVLTSDYTLDSYYWGQGTQVTVSS,high polyreactivity
21,QVQLVESGGGLVQAGGSLRLSCAASGRIFHRYVMGWYRQAPGKERELVAAISSGTGSTYYADSVKGRFTISRDTAKNTVYLLMNSLIPEDTAVYYCNAAPGYTSVTYDYWGQGTQVTVSS,high polyreactivity

row,Sequence,polyreactivity (PSR sort gate)
1,QVQLVESGGGLVQAGGSLRLSCAASGRIFHVYAMGWYRQAPGKERELVAAISSGDRTYYADSVNGRFIISRDNAKNTVYLQMNSLKPEDTAVYYCWLYPAAVSNYWGQGTQVTVSS,low polyreactivity
2,QVQLVESGGGLVQAGGSLRLSCAASGRIFHYNAMGWYRQAPAKERELVAAINRSGGTTNYADSVKGRFTISRDTAKNTVYLEMNSLIPEDTAVYYCNATLPDYWPYYYYLGGDDYWGQGTQVTVSS,low polyreactivity
3,QVQLVESGGGLVQAGGSLRLSCAASGRIFHYNAMGWYRQAPGKERELVAAITRRGTSTYYADSVKGRFTISRDNAKNTVYLQMNSLKPEDTAVYYCATDYGFKDSVVDFDYWGQGTQVTVSS,low polyreactivity
4,QVQLVESGGGLVQAGGSLRLSCAASGRIFHYNAMGWYRQAPGKERELVAVITTIGGDTYYADSVKGRFTISRDNAKNTVYLQMNSLKPEDTAVYYCAARSRSWRQRYGDFDYWGQGTQVTVSS,low polyreactivity
5,QVQLVESGGGLVQAGGSLRLSCAASGRIFHYNAMGWYRQARGKERQLVAAITGGGGSTYYADSVKGRFTISRDNAKNTVYLEKNSLKPEDTAVYYCAKRYRSSSIRVYYWGLGTQVTVSS,high polyreactivity
6,QVQLVESGGGLVQAGGSLRLSCAASGRIFHYYMGWYRQAPGKERELVAVISSGDGTYYADSVKGRFTISRDNAKYTVYLQMNSLKPEDTAVYYCAADAPREYVDHYKYDDDYWGQGTQVTVSS,low polyreactivity
7,QVQLVESGGGLVQAGGSLRLSCAASGRIFIAYAMGWYRQAPGKERELVAAITDDGGTNYADSVKGRFTISRDNAKNTVYLQMNSLKPEDTAVYYCAATYLIGYYYVWEYDYWGQGTHVTVSS,low polyreactivity
8,QVQLVESGGGLVQAGGSLRLSCAASGRIFIDYAMAWYRQAPGKESELVATNTSSGGSTYYADSVKGRFTISRDNAKNTVYLLMNSLNPEDTAVYFCNKEGSYDYDYWGQGTQVTVSS,low polyreactivity
9,QVQLVESGGGLVQAGGSLRLSCAASGRIFIDYAMGWSRQAHGKERELVAAIDSGGNSNYADSVKGRFTISRDNAKNSVYLQKNSLKPEDTAVYYCNASGVTTDIAGVYWGQGTQVSVSS,low polyreactivity
10,QVQLVESGGGLVQAGGSLRLSCAASGRIFIDYAMGWYRPAPGKERELVATITSSGGSTYYADSVKGRFTISRDNAKNTVYLQMNRLKPEDTAVYYCNKEGSYDYDYWGQGTQVTVSS,low polyreactivity
11,QVQLVESGGGLVQAGGSLRLSCAASGRIFIDYAMGWYRQAPGKERELVATISESGGSTYYADSVKARFTISRDNAKNTVYLQMNSLKPEDTAVYYCAAVGDNLATAEYDFWGQGTKVTVSS,low polyreactivity
12,QVQLVESGGGLVQAGGSLRLSCAASGRIFIENAMGWYRQAPGKERELVAAISGSGGRTYYADSVKGRFTISRDNAKNTVYLQMNSLKPEDTAVYYCAAVLRTQPRRYDYWGQGTQVTVSS,high polyreactivity
13,QVQLVESGGGLVQAGGSLRLSCAASGRIFIFTYALGWYRQAPGKERELVAAITSSGGSTYYADSVKGRFTISRDNAKNTVYLQMNSLKPEDTAVYYCIAYSYYIVHFIRYEYWGQGTQVTVSS,high polyreactivity
14,QVQLVESGGGLVQAGGSLRLSCAASGRIFIGNAMGWYRQAPGKERELVAAISKRGGSTYYADSVKGRFTISRDNAKNTVYLQMNSLKPEDTAVYYCNKESLYREFDYWGQGTQVTVSS,low polyreactivity
15,QVQLVESGGGLVQAGGSLRLSCAASGRIFIGNAMGWYRQAPGKERELVAAISKRGGSTYYADSVKGRFTISRDNAKNTVYLQMNSLKPEDTAVYYCNTESLYREFDDWGQGTQGTVSS,low polyreactivity
16,QVQLVESGGGLVQAGGSLRLSCAASGRIFINNAMGWYRQAPGKERELVAAINTGGGTNYADSVKGRFTISRDNAKNTVYLEMNSLKPEDSAVYYCAARTYDFRARHKDGYWGQGTQVTVSS,high polyreactivity
17,QVQLVESGGGLVQAGGSLRLSCAASGRIFIPYAMGWYRLAPGKERELVAAISSSAGSSYYADSVKGRFTISRDTAKNTVYLQMKSLKPEDTAVYYCAARLYWWYAFETYSSLFEYDYWGQGTQVTVSS,low polyreactivity
18,QVQLVESGGGLVQAGGSLRLSCAASGRIFITKAMGWYRQAPGKERELVAAIRRRGGNTYYADSVKGRFTISRDNAKNTVYLQMNSLKPEDTAVYYCAVYPRPYKYNYWGQGTQVSVSS,high polyreactivity
19,QVQLVESGGGLVQAGGSLRLSCAASGRIFIYNAMGWYCQAPGKERELVAAINRSGVSTHYADSVKGRFTISRDNAKNTVYLQMNSLKPEDTAVYYCARTDYGARSYDYWGQGTQVTVSS,low polyreactivity
20,QVQLVESGGGLVQAGGSLRLSCAASGRIFIYNAMGWYRPAPGKERELVAAINRSGVSTHYADSVKGRFTISRDNEKNTVYLQMNSLKPEDTAVYYCARTVYGARSYDYWGQGTQVTVSS,low polyreactivity
